Assay results published in patent US8372810B2, “Anti-tumor drug, medicament, composition, and use thereof” (Gene Signal International SA, priority 2007, dated 2013).
“Also recorded” adds a separate entry of the source.

What was measured:
[1] = system: NCI H460 human tumor; assay: NCI H460 human tumor xenograft in Swiss Nude mice, tumor growth; format: in vivo; parameters: key to MRTV D28 / MRTV D12 / MRTV D14 / MRTV D16 / MRTV D18 / MRTV D20 / MRTV D22 / MRTV D24 / MRTV D26: ratio of mean tumor volume at day t to volume at injection (D12); conditions: for MRTV D12: reference day
Protocol: NCI H460 cells were cultured as adherent cells in complete RPMI 1640 medium (Ref. CM1RRM08-01, batch No. 623615, Eurobio, France) containing 2 mM L-Glutamine, adjusted to 4.5 g/L glucose (Ref. G7528, batch No. 033K0121, Sigma, France) and supplemented with 10 mM HEPES (Ref. H0887, batch No. 113K2338, Sigma, France), 1.0 mM sodium pyruvate (Ref. CSTVAT00-0U, batch No. 520818, Sigma, France) and 10% fetal calf serum (FCS; Ref. CVFSVF00-01, batch No. S13021, Eurobio, France) under a 37° C., 5% CO2 humidified atmosphere. They were amplified in 75 cm^2-flasks to reach 90×10^6 cells.
At D0, NCI H460 cells (human lung carcinoma) were collected from 75 cm^2-flasks by removing the medium and adding 3 ml of trypsine-EDTA (Ref. CEZTDA00-0U, batch No. 633920, Eurobio, France). After 5 min of incubation at 37° C., cells were detached from the plastic and the enzymatic reaction was stopped by adding 3 ml of RPMI 1640 medium containing 10% fetal calf serum. Cells were then centrifuged at 700 g for 5 min at room temperature. They were resuspended in serum-free RPMI 1640 culture medium containing L-Glutamine (2 mM), glucose (4.5 g/l), sodium pyruvate (1 mM) and buffered with HEPES (10 mM). Cells were counted and the number of viable NCI H460 cells was >99%. The number of cells was then adjusted to 25.10^6 cells/ml in serum-free medium.
NCI H460 cells (5.10^6 cells/mouse in 200 μL of serum-free medium) were then implanted subcutaneously in the right flank of each mouse.
At D12 post-implantation of the NCI H460 cells, the thirty mice were randomized into six groups of 5 mice. Tumor volumes had reached 228 to 468 mm^3 and mean tumor volumes were not statistically different between groups after randomization.
All solutions were injected IP.
Animals have been observed daily.
• Tumor growth curves were drawn using the mean tumor volumes (MTV), • Mean Relative tumor volume (MRTV) was calculated as the ratio between the MTV at time t and the volume at the time of injection (t=D12), • Tumor growth inhibition (T/C, %) was evaluated as the ratio of the median tumor volumes of treated groups versus vehicle group.
Statistical analyses of tumor volumes (V), time to reach ‘V’, tumor-doubling time (DT), relative tumor volume (RTV) and tumor growth inhibition (T/C) were performed for all groups. Data are expressed as mean±SD. Groups of data were normally distributed. Univariate analysis were performed to assess differences between groups. Statistical significance was then determined using the Student's t test. A P<0.05 was considered as statistically significant. The Statistical analysis was performed using XLSTAT (Addinsoft, France).

[2] = system: tumor cell line Calu-6; assay: Proliferation of other cell lines: Calu-6; format: cell-based, human; conditions: even at high concentration
[3] = Body weight and toxicity monitoring of mice bearing CALU-6 tumors; conditions: CALU-6 bearing Nude mice, 497C-T2 10 mg/kg IP
Protocol: Injections in groups 1, 2, 3 and 4 were performed according to the schedules Q2DX8, i.e. 1 quantity every two days, eight times.
CDDP was resuspended in sterile physiological serum at a concentration of 0.5 mg/mL and injected IP at a concentration of 5 mg/kg at a volume of 10 mL/kg, according to the treatment schedule Q2DX8.
Ketamine/Xylazine (80 mg/kg-12 mg/kg; Ref. K-113, Sigma, France) was used to anaesthetize the animals before sacrifice by cervical dislocation.

[4] = system: fibroblast cell line MRC5; assay: Proliferation of other cell lines: MRC5; format: cell-based; conditions: even at high concentration
[5] = system: CHO; assay: Proliferation of other cell lines: CHO; format: cell-based; conditions: even at high concentration
[6] = system: HUVEC; assay: Wound assay, migration of human endothelial cells; format: cell-based; conditions: 18 hours; 497C-T2 0.83 and 1.66 μM; 497C-T3 2.4 μM; 497C-T4 3.52 μM; 497C-T5 3.65 μM; C-terminal tail 4.92 μM
Protocol: Cell migration was tested by the wound assay described by Sato and Rifkin (J Cell Biol. 1988; 107:1199) with few modifications. HUVEC grown in growth medium EGM-2MV (Cambrex) were seeded in 24-well plates at 80 000 cells per well in 500 μL of growth medium and grown to confluence at 37° C. in a humidified atmosphere containing 5% CO2. Cells were scrapped with a plastic tip on one line only. After wounding, the culture medium was changed for fresh medium (control, FIG. 3a) or fresh medium supplemented with: • FIG. 3b: 497C-T2 20 μg/mL (0.83 μM) • FIG. 3c: 497C-T2 40 μg/mL (1.66 μM) • FIG. 3d: 497C-T3 48 μg/mL (2.4 μM) • FIG. 3e: 497C-T4 60 μg/mL (3.52 μM) • FIG. 3f: 497C-T5 61 μg/mL (3.65 μM) • FIG. 3g: C-terminal tail 63 μg/mL (4.92 μM)
After 18 hours of culture, cells were observed and photographed under the inverted microscope (Analysis, Olympus, Rungis, France).

[7] = 497C-T2 10 mg/kg IP Q1DX16 (G4)
[8] = 497C-T2 10 mg/kg IP Q1DX16 (G4), 10 mg/kg
[9] = 497C-T2 10 mg/kg IP Q1DX16 (G4), listed as 497C-T2-Batch A
[10] = 497C-T2 10 mg/kg IP once daily Q1DX16 (G4)
[11] = IP Q2DX8, CDDP 5 mg/kg (G2), 497C-T2 10 mg/kg (G3), 497C-T2 10 mg/kg + CDDP 5 mg/kg (G5)
[12] = IP Q2DX8, CDDP 5 mg/kg (G2), 497C-T2 10 mg/kg (G3), 497C-T2 10 mg/kg + CDDP 5 mg/kg (G5), listed as 497C-T2-Batch A

B1: 497C-T2: entire LEL domain of protein 497C, SEQ ID NO:3 (112 amino acids); as produced SEQ ID NO:8, with N-terminal His-Tag and C-terminal tail, 24 kD (protein, listed as Homo sapiens)
chain: MHHHHHHSSGLVPRGSGMKETAAAKFERQHMDSPDLGTDDDDKISGFVFRHEIKDTFLRTYTDAMQTYNGNDERSRAVDHVQRSLSCCGVQNYTNWSTSPYFLEHGIPPSCCMNETDCNPQDLHNLTVAATKVNQKGCYDLVTSFMETNMGIIAGDRASPQPWRYRIRILAPSTSLRPHSSTTTTTTXIRLLTKPERKLSWLLPPLSNN
modifications: X: residue not identified in the source
**Q.** Which results are given for B1?
**A.** MTV at D14 [1, 7]: 468.85 mm^3; MTV at D24 [1, 7]: 2289.22 mm^3; T/C at D14 (treated/vehicle tumor volume ratio) [1, 7]: 46.90%; T/C at D24 (treated/vehicle tumor volume ratio) [1, 7]: 71.04%; DT (doubling time of tumor volume) [1, 8]: 5.9 ± 1.21 days; MTV at D28 [1, 8]: 3167±1681 mm^3; T/C at D28 (treated/vehicle tumor volume ratio) [1, 8]: 71%; DT (doubling time of tumor volume) [1, 9]: 5.9 days; MTV at D28 [1, 9]: 3167.34 mm^3; T/C at D28 (treated/vehicle tumor volume ratio) [1, 9]: 71.32%; MRTV D14 [1, 10]: 1.08; MRTV D16 [1, 10]: 1.00; MRTV D18 [1, 10]: 1.69; MRTV D20 [1, 10]: 2.63; MRTV D22 [1, 10]: 3.08; MRTV D24 [1, 10]: 3.08; MRTV D26 [1, 10]: 4.89; MRTV D28 [1, 10]: 6.76; DT (doubling time of tumor volume) [1, 11]: 4.08 ± 1.4 days; MRTV D14 [1, 11]: 1.37; MRTV D16 [1, 11]: 1.70; MRTV D18 [1, 11]: 2.46; MRTV D20 [1, 11]: 2.81; MRTV D22 [1, 11]: 3.30; MRTV D24 [1, 11]: 3.22; MRTV D26 [1, 11]: 5.80; MRTV D28 [1, 11]: 7.37; MTV at D14 [1, 11]: 571.00 mm^3; MTV at D24 [1, 11]: 1955.02 mm^3; MTV at D28 [1, 11]: 2482±2075 mm^3; T/C at D14 (treated/vehicle tumor volume ratio) [1, 11]: 57.12%; T/C at D24 (treated/vehicle tumor volume ratio) [1, 11]: 60.67%; T/C at D28 (treated/vehicle tumor volume ratio) [1, 11]: 56%; DT (doubling time of tumor volume) [1, 12]: 4.08 days; MTV at D28 [1, 12]: 2481.61 mm^3; T/C at D28 (treated/vehicle tumor volume ratio) [1, 12]: 55.88%; anti-tumoral activity ([1]; NCI H460, monotherapy (G3, G4) or combined with CDDP (G5, G6)): moderate anti-tumoral activity; MRTV D12 [1, 10]: 1.00; MRTV D12 [1, 11]: 1.00; anti-proliferative effect [2]: without any detectable anti-proliferative effect; toxicity during the course of the treatment [3]: No toxicity was observed; also recorded: not toxic; anti-proliferative effect [4]: without any detectable anti-proliferative effect; anti-proliferative effect [5]: without any detectable anti-proliferative effect; inhibition of endothelial cell migration [6]: inhibited human endothelial cells migration in a dose dependent manner
